Experimental data reported in KR20130034043A, “폴리펩타이드” (애피바디 에이비, priority 2010, dated 2013).
Where no end group is shown, it is not given here.

Columns and labels:
[1] = Melting temperature (Tm) by circular dichroism, variable temperature (Example 3); assay type: physicochemical; conditions: higher Tm with N-terminal serine
인간 혈청 함유 IgG = assay type: binding
RSA = target: T1, RSA (Rattus norvegicus, UniProt P02770); assay: Biacore affinity for albumin of various species: rat (Example 7); assay type: binding, 랫트; conditions: range stated over all five species
T1 construct: purchased Sigma-Aldrich A6272
T1 sequence (P02770 25-608): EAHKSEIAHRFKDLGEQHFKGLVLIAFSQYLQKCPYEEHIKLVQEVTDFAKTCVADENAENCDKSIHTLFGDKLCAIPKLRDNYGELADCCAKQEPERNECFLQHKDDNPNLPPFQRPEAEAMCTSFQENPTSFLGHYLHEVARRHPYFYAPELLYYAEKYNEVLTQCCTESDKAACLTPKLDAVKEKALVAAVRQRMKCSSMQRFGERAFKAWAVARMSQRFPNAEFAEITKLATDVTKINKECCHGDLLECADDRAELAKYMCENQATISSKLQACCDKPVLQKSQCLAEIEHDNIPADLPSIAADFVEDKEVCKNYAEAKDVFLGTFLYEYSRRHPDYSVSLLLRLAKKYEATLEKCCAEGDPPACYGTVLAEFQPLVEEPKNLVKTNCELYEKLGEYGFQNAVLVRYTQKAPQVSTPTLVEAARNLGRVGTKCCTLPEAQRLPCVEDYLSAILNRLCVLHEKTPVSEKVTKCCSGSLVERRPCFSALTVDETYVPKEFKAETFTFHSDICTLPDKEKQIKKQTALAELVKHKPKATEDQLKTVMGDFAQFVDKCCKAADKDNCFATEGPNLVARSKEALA

MSA = target: T2, MSA (Mus musculus, UniProt P07724); assay: Biacore affinity for albumin of various species: mouse (Example 7); assay type: binding, 마우스; conditions: range stated over all five species
T2 construct: purchased Sigma-Aldrich A3559
T2 sequence (P07724 25-608): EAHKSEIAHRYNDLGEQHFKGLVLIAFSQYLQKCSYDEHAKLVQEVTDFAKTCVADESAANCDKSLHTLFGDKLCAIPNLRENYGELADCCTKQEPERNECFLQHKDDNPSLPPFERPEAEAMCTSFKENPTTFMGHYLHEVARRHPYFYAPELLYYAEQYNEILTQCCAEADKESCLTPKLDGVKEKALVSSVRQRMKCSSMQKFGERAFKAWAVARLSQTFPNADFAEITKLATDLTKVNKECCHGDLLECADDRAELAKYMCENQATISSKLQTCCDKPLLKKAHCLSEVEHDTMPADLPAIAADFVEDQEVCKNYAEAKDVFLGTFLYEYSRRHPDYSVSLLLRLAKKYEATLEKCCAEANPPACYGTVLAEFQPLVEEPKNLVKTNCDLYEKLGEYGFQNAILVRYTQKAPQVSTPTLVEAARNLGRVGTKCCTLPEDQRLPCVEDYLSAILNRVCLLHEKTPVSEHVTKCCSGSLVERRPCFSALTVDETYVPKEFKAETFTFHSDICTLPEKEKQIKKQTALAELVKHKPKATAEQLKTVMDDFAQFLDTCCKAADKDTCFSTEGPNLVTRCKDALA

인간 혈청 알부민(HSA) [2] = target: T3, 인간 혈청 알부민(HSA) (Homo sapiens, UniProt P02768); assay: Biacore affinity for albumin of various species: human (Example 7); assay type: binding
T3 construct: purchased Novozymes

HSA = target: T4, HSA (Homo sapiens, UniProt P02768); assay: Stability to heat and low pH, biosensor analysis of HSA binding (Example 10); assay type: physicochemical, 인간; conditions: 90℃, 10 min, pH 4.0
T4 construct: purchased Novozymes

DSA = target: T5, DSA (Canis lupus familiaris, UniProt P49822); assay: Biacore affinity for albumin of various species: dog (Example 7); assay type: binding, 개; conditions: range stated over all five species
T5 construct: purchased MP Biomedicals 55925
T5 sequence (P49822 25-608): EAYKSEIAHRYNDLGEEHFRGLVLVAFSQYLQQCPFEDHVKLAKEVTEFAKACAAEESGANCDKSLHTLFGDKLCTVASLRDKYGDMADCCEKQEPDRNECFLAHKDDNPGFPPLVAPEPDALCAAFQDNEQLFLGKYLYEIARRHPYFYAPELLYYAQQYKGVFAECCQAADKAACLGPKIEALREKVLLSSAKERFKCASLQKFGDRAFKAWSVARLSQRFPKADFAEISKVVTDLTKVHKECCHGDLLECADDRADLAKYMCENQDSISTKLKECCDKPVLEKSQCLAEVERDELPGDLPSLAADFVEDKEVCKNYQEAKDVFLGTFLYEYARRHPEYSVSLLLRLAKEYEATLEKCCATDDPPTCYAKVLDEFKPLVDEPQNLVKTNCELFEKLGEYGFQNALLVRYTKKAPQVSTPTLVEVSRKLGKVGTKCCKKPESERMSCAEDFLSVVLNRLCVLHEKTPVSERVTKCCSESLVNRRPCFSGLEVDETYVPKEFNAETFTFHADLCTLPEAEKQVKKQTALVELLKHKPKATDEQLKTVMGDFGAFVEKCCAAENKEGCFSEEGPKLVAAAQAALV

CSA = target: T6, CSA (Macaca fascicularis, UniProt A2V9Z4); assay: Biacore affinity for albumin of various species: cynomolgus (Example 7); assay type: binding, 필리핀 원숭이; conditions: range stated over all five species
T6 construct: CSA(cynomolgus 혈청으로부터 얻어 in-house 정제시킴); from tissue; host or cells: cynomolgus serum
T6 sequence (A2V9Z4 25-608): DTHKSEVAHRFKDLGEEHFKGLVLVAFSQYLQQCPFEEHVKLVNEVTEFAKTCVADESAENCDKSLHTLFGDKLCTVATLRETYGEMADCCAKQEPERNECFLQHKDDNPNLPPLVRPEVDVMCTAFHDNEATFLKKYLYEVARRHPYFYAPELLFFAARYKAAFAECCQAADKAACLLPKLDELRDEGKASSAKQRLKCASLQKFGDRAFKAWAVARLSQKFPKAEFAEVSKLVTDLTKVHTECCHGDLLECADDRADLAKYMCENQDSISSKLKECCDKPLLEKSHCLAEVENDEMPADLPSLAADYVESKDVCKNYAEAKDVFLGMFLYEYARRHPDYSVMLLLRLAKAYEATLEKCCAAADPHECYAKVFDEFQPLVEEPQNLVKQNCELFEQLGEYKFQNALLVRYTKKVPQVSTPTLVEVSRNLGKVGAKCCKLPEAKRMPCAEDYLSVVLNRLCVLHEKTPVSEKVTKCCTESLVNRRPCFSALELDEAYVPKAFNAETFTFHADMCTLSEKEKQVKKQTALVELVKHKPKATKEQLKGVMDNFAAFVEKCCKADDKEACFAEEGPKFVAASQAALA

[3] = Stability to heat, CD analysis of structural reversibility (Example 10); assay type: physicochemical
인간 혈청 알부민(HSA) [4] = target: T3, 인간 혈청 알부민(HSA); assay: Biacore (SPR) affinity for immobilised HSA (Example 2); assay type: binding; conditions: as in Example 2; data not shown
[5] = Small animal PET, whole-body distribution of 68Ga-labelled polypeptide (Example 11); assay type: in vivo, 랫트; conditions: after i.v. injection, […] scan

Compound: PEP07554: albumin binding polypeptide variant, SEQ ID NO:156 (GSS + PP007 sequence) (GSSLASAKEAANAELDSYGVSDFYKRLIDKAKTVEGVEALKDAILAALP; Engineered albumin-binding polypeptide)
- Tm difference, N-terminal serine vs glycine at the same position (PEP07554 vs PEP07912) [1]: 5 °C

Compound: CC[C@H](C)[C@H](NC(=O)[C@H](C)NC(=O)[C@H](CC(=O)O)NC(=O)[C@H](CCCCN)NC(=O)[C@H](CC(C)C)NC(=O)[C@H](C)NC(=O)[C@H](CCC(=O)O)NC(=O)[C@@H](NC(=O)CNC(=O)[C@H](CCC(=O)O)NC(=O)[C@@H](NC(=O)[C@@H](NC(=O)[C@H](CCCCN)NC(=O)[C@H](C)NC(=O)[C@H](CCCCN)NC(=O)[C@H](CC(=O)O)NC(=O)[C@@H](NC(=O)[C@H](CC(C)C)NC(=O)[C@H](CCCNC(=N)N)NC(=O)[C@H](CCCCN)NC(=O)[C@H](Cc1ccc(O)cc1)NC(=O)[C@H](Cc1ccccc1)NC(=O)[C@H](CC(=O)O)NC(=O)[C@H](CO)NC(=O)[C@@H](NC(=O)CNC(=O)[C@H](Cc1ccc(O)cc1)NC(=O)[C@H](CSC1CC(=O)N(CCNC(=O)CN2CCN(CC(=O)O)CCN(CC(=O)O)CCN(CC(=O)O)CC2)C1=O)NC(=O)[C@H](CC(=O)O)NC(=O)[C@H](CC(C)C)NC(=O)[C@H](CCC(=O)O)NC(=O)[C@H](C)NC(=O)[C@H](CC(N)=O)NC(=O)[C@H](C)NC(=O)[C@H](C)NC(=O)[C@H](CCC(=O)O)NC(=O)[C@H](CCCCN)NC(=O)[C@H](C)NC(=O)[C@H](CO)NC(=O)[C@H](C)NC(=O)[C@H](CC(C)C)NC(=O)CN)C(C)C)[C@@H](C)CC)[C@@H](C)O)C(C)C)C(C)C)C(=O)N[C@@H](CC(C)C)C(=O)N[C@@H](C)C(=O)N[C@@H](C)C(=O)N[C@@H](CC(C)C)C(=O)N1CCC[C@H]1C(=O)O (some centres unmarked) [PEP07968]
- Reactivity with human serum IgG (mean OD and proportion of sera binding) (인간 혈청 함유 IgG): 가장 낮은 반응도
- Immunogenicity classification (CD3+ CD4+ T 세포): 비-면역원성
- Number of responding individuals compared with buffer only (CD3+ CD4+ T 세포): 1 명

Compound: PEP08296: DOTA-conjugated PEP08185 (SEQ ID NO:148) (GSLAEAKEAANAELDCYGVSDFYKRLIDKAKTVEGVEALKDAILAALPG; also: DOTA conjugate, place not given here)
- KD for RSA (RSA): 높은 친화성(KD가 피코몰 미만으로부터 나노몰 미만까지의 범위에 속함)
- KD for MSA (MSA): 높은 친화성(KD가 피코몰 미만으로부터 나노몰 미만까지의 범위에 속함)
- Rank order of relative affinity for albumins of the species (인간 혈청 알부민(HSA) [2]; HSA, CSA, RSA, MSA, DSA): RSA ≥ HSA/CSA > MSA/DSA
- Affinity (KD) compared with PEP06923 (인간 혈청 알부민(HSA) [2]; albumins of the tested species, same order of magnitude): 같거나 약간 낮다
- KD for HSA (인간 혈청 알부민(HSA) [2]; range stated over all five species): 높은 친화성(KD가 피코몰 미만으로부터 나노몰 미만까지의 범위에 속함)
- HSA binding capacity after heat treatment (HSA): 약간 떨어뜨렸다
- KD for DSA (DSA): 높은 친화성(KD가 피코몰 미만으로부터 나노몰 미만까지의 범위에 속함)
- KD for CSA (CSA): 높은 친화성(KD가 피코몰 미만으로부터 나노몰 미만까지의 범위에 속함)
- Alpha helix content after heat treatment, pH 4.0 ([3]; 90℃, 12 min, PBS pH 4.0): 약간 감소
- Alpha helix content after heat treatment, pH 7.2 ([3]; 90℃, 12 min, PBS pH 7.2): 어떠한 변화도 없었다
- Effect of short heating to 90℃ on structure (CD spectra before/after) ([3]; temperature gradient 20-90℃, pH 4 or pH 7.2 buffer): 전혀 영향을 미치지 않았다

Compound: PEP07975: maleimide-DOTA-conjugated PEP07834 (SEQ ID NO:160), C-terminal amide, chemically synthesised (ALASAKEAANAELDCYGVSDFYKRLIDKAKTVEGVEALKDAILAALP-NH2; also: maleimide-DOTA conjugate, place not given here)
- Binding activity to HSA (인간 혈청 알부민(HSA) [4]): 확인하였으며

Compound: 68Ga-PEP08296: 68Ga-labelled PEP08296 (DOTA-conjugated PEP08185, SEQ ID NO:148) (GSLAEAKEAANAELDCYGVSDFYKRLIDKAKTVEGVEALKDAILAALPG; also: DOTA chelator conjugated, place not given here, 68Ga label)
- Plasma clearance [5]: 매우 느린
